For the assay, the target named is ACM2 variant of AC fused to GFP (ACM2-GFP), encoded by plasmid pACM2-Gfp (Bordetella pertussis | not stated) (UniProt P0DKX7). Put plainly: two-hybrid.

This note sets out measurements from PMC13334617.

As for “calmodulin (CaM) with a 6-histidine tag at its N-terminus and a tetra-cysteine tag at its C-terminus, encoded by plasmid pTCam (from UniProt P0DP23 1-149) (natural protein)”, the ß gal (Rel. Units) amounted to 8 Rel. Units.
